Measurements from patent US20240018189A1 (PROTAGONIST THERAPEUTICS, published 2024).
Positions of bridges follow the written chain, without caps; N, C: chain ends. Non-standard residues stand in square brackets, D forms with d. Groups on a side chain read outwards from the residue. *: point of attachment. PEG12 = NCCOCCOCCOCCOCCOCCOCCOCCOCCOCCOCCOCCOCCC(=O)O; Phe(4-tBu) = CC(C)(C)c1ccc(C[C@H](N)C(=O)O)cc1; Phe(3,4-F2) = N[C@@H](Cc1ccc(F)c(F)c1)C(=O)O; Dip = N[C@H](C(=O)O)C(c1ccccc1)c1ccccc1; Palmitoyl = CCCCCCCCCCCCCCCC(=O)*; β3hF = N[C@H](CC(=O)O)Cc1ccccc1; Isovaleryl = CC(C)CC(=O)*; Dap = NC[C@H](N)C(=O)O; Npc = nipecotic acid; βAla = NCCC(=O)O

T1: human ferroportin (SLC40A1) fused in frame with GFP (human) (UniProt Q9NP59)
T1 sequence (looked up): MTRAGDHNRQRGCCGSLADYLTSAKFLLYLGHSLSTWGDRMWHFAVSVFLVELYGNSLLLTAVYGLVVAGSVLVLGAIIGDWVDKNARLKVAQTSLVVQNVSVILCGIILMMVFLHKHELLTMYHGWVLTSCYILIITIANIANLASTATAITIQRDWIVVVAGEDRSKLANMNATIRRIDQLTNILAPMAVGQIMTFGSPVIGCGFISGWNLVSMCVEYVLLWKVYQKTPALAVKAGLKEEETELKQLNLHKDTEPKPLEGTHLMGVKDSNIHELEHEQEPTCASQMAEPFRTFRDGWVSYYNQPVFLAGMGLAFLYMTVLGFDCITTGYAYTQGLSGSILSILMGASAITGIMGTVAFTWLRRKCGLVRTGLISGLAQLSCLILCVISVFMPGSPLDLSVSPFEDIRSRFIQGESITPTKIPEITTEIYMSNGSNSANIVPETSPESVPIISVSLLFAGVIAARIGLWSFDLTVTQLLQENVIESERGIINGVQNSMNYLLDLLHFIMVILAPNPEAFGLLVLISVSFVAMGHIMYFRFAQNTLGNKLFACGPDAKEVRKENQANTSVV

T2: human ferroportin (SLC40A1) fused in frame with GFP (human, UniProt Q9NP59 1-571)
T2 sequence (looked up): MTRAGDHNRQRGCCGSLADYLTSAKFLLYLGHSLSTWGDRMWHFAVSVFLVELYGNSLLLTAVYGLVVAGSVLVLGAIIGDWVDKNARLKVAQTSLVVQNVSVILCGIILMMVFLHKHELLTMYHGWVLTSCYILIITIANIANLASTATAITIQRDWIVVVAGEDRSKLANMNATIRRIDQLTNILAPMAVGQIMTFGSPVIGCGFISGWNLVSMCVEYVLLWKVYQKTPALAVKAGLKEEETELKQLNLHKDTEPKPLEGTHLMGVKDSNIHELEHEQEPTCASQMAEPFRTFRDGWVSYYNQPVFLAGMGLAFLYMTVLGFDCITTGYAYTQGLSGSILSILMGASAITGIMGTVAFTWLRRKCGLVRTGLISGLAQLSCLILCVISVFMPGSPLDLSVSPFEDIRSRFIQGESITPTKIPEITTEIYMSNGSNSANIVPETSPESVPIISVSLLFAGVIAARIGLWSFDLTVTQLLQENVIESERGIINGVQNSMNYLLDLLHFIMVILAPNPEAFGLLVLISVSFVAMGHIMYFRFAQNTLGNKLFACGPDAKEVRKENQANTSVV


Columns and labels:
[1] = target: T1, human ferroportin (SLC40A1) fused in frame with GFP (human); assay: cell-based or functional assay
[2] = target: T2, human ferroportin (SLC40A1) fused in …; assay: cell-based or functional assay

| IC50: FPN internalisation [1] | Binder | also measured |
| --- | --- | --- |
| 22 nM | DTHXPCIKFKC (N-term isovaleric acid; 4 Dpa; 8 (D)Lys; 10 Lys(PEG12_Palm); C-term NH2) [Seq. No. 341] | – |
| 11 nM | Isovaleryl-DTH[Dip]PCI[dA][β3hF]K([PEG12-Palmitoyl])[dK]C-NH2 (disulfide 6-12 (inferred)) [Seq. No. 332] | – |
| 24 nM | Isovaleryl-DTH[Dip]PCII[β3hF]K([PEG12-Palmitoyl])[dK]C-NH2 (disulfide 6-12 (inferred)) [Seq. No. 331] | – |
| – | Isovaleryl-DTH[Dip]PCI[Dap]([Dap-Palmitoyl])[β3hF]C-NH2 (disulfide 6-10 (inferred)) [Compd. ID 1] | FPN EC50 [2]: 2.54 nM |
| 95.7 nM | DTHXPCIKXKC (N-term isovaleric acid; 4 Dpa; 8 (D)Lys; 9 bhPhe; 10 Lys(Ac); C-term NH2) [Seq. No. 326] | – |
| 16.5 nM | Isovaleryl-DTH[Dip][Npc]CI[dK][Phe(4-tBu)][dK]CK([PEG12-Palmitoyl])-NH2 (disulfide 6-11 (inferred)) [Seq. No. 328] | – |
| 6.16 nM | Isovaleryl-DTH[Dip][Npc]CI[dK][Phe(3,4-F2)]K([PEG12-Palmitoyl])KC-NH2 (disulfide 6-12 (inferred)) [Seq. No. 346] | – |
| 37.8 nM | DTHXPCIKXKC (N-term isovaleric acid; 4 Dpa; 8 (D)Lys(Ac); 9 bhPhe; 10 Lys(Ac); C-term NH2) [Seq. No. 325] | – |
| 7.75 nM | DTHXPCIKFKKX (N-term isovaleric acid; 4 Dpa; 8 (D)Lys; 10 Lys(PEG12_Palm); 11 (D)Lys; 12 Pen; C-term NH2) [Seq. No. 344] | – |
| 23 nM | DTHXPCIKXKKC (N-term isovaleric acid; 4 Dpa; 8 (D)Lys; 9 Dpa; 10 Lys(PEG12_Palm); 11 (D)Lys; C-term NH2) [Seq. No. 345] | – |
| – | DTHXPCIKXKC (N-term isovaleric acid; 4 Dpa; 8 Lys[Ahx-Behenic_Acid]; 9 bhPhe; 10 (D)Lys; C-term NH2) [Compd. ID 8] | FPN EC50 [1]: 550 nM |
| 6.93 nM | Isovaleryl-DTH[Dip]PCI[β3hF]K([PEG12-Palmitoyl])[dK]C-NH2 (disulfide 6-11 (inferred)) [Seq. No. 330] | – |
| 22.8 nM | DTHXPCIKFKXC (N-term isovaleric acid; 4 Dpa; 8 (D)Lys; 10 Lys(PEG12 Palm); 11 Dab; C-term NH2) [Seq. No. 339] | – |
| 32 nM | Isovaleryl-DTHFPCI[dK]FK([PEG12-Palmitoyl])CK-NH2 (disulfide 6-11 (inferred)) [Seq. No. 334] | – |
| 26.9 nM | DTHXPCIKFKXC (N-term isovaleric acid; 4 Dpa; 8 (D)Lys; 10 Lys(PEG12_Palm); 11 Orn; C-term NH2) [Seq. No. 340] | – |
| 23.3 nM | Isovaleryl-DTH[Dip]PCI[β3hF][dK]C-NH2 (disulfide 6-10 (inferred)) [Seq. No. 324] | – |
| 20.4 nM | DTHXPCIKFKXC (N-term isovaleric acid; 4 Dpa; 8 (D)Lys; 10 Lys(PEG12 Palm); 11 bhLys; C-term NH2) [Seq. No. 338] | – |
| – | DTHXPCIKXKC (N-term isovaleric acid; 4 Dpa; 8 Lys[1Peg2-1Peg2-isoGlu-Behenic_Acid]; 9 bhPhe; 10 (D)Lys; C-term NH2) [Compd. ID 9] | FPN EC50 [1]: 18.4 nM |
| 7.16 nM | Isovaleryl-DTH[Dip]PCI[βAla][β3hF]K([PEG12-Palmitoyl])[dK]C-NH2 (disulfide 6-12 (inferred)) [Seq. No. 333] | – |
| 142 nM | DTHXPCIKXKKC (N-term isovaleric acid; 4 Dpa; 8 (D)Lys; 9 bhPhe; 11 (D)Lys; C-term NH2) [Seq. No. 327] | – |
